Source: US20240116985A1 (published 2024)
Starred links: 1 amine or outer side, 2 acyl side, 3 side chain; linkers in the order of their positions; H or OH if unused. Positions of bridges follow the written chain, without caps; N, C: chain ends. Non-standard residues stand in square brackets, D forms with d. Primed or numbered codes have the meaning given here. B5(10) = 2-amino-2-(pent-4-en-1-yl)hept-6-enoic acid, bis(4-pentenyl)glycine, stitching residue bearing both staples, C=CCCCC(CCCC=C)(N[*:1])C(=O)[*:2]; PyrS2″ = (S)-3-amino-1-((pent-4-en-1-yloxy)carbonyl)pyrrolidine-3-carboxylic acid (stapling residue), C=CCCCOC(=O)N1CC[C@@](N[*:1])(C(=O)[*:2])C1; B5(4) = 2,2-bis(4-pentenyl)glycine = 2-amino-2-(pent-4-en-1-yl)hept-6-enoic acid (stitching residue), C=CCCCC(CCCC=C)(N[*:1])C(=O)[*:2]; B5(5) = 2,2-bis(4-pentenyl)glycine, 2-amino-2-(pent-4-en-1-yl)hept-6-enoic acid (stitching residue), C=CCCCC(CCCC=C)(N[*:1])C(=O)[*:2]; TfeGA = (S)-2-amino-3-((carboxymethyl)(2,2,2-trifluoroethyl)amino)propanoic acid, O=C([C@H](CN(CC(=O)[*:3])CC(F)(F)F)N[*:1])[*:2]; PyrS2 = (S)-3-amino-1-((pent-4-en-1-yloxy)carbonyl)pyrrolidine-3-carboxylic acid, C=CCCCOC(=O)N1CC[C@@](N[*:1])(C(=O)[*:2])C1; Phe(3-COOH) = N[C@@H](Cc1cccc(C(=O)O)c1)C(=O)O; 2F3MeF = Cc1cccc(C[C@H](N[*:1])C(=O)[*:2])c1F; Bta = N[C@@H](Cc1csc2ccccc12)C(=O)O; αAllylPro = C=CC[C@@]1(C(=O)O)CCCN1; tBuAla = CC(C)(C)C[C@H](N)C(=O)O; 3Thi = N[C@@H](Cc1ccsc1)C(=O)O; S8 = C=CCCCCCC[C@](C)(N)C(=O)O; PyrS2(4) = not defined here

T1: Bcat-Halo (beta-catenin HaloTag construct transfected into HEK293 cells) (UniProt P35222 1-781)
T1 sequence (looked up): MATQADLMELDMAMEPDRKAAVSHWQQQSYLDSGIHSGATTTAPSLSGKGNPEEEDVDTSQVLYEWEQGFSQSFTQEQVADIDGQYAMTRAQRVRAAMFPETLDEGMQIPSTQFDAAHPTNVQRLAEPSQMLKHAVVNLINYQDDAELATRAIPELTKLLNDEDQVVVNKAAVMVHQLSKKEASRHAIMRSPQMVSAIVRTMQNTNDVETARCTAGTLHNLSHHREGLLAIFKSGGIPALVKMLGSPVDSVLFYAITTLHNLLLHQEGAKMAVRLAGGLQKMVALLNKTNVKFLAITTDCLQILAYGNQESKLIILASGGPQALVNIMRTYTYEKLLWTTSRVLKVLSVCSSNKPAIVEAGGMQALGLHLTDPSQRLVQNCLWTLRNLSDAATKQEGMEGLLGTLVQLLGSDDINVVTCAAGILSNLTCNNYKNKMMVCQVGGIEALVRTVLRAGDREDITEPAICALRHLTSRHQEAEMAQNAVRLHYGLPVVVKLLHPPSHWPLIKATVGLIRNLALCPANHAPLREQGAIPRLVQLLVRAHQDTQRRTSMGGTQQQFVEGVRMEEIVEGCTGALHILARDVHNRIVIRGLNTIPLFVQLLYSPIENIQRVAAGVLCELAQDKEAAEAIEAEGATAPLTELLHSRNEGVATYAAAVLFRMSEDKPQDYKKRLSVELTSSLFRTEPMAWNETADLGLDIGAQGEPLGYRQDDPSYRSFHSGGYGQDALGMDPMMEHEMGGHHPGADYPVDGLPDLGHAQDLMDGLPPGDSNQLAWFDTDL

T2: beta-catenin in DLD1 TCF/LEF luciferase reporter cells (UniProt P35222 1-781)
T2 sequence (looked up): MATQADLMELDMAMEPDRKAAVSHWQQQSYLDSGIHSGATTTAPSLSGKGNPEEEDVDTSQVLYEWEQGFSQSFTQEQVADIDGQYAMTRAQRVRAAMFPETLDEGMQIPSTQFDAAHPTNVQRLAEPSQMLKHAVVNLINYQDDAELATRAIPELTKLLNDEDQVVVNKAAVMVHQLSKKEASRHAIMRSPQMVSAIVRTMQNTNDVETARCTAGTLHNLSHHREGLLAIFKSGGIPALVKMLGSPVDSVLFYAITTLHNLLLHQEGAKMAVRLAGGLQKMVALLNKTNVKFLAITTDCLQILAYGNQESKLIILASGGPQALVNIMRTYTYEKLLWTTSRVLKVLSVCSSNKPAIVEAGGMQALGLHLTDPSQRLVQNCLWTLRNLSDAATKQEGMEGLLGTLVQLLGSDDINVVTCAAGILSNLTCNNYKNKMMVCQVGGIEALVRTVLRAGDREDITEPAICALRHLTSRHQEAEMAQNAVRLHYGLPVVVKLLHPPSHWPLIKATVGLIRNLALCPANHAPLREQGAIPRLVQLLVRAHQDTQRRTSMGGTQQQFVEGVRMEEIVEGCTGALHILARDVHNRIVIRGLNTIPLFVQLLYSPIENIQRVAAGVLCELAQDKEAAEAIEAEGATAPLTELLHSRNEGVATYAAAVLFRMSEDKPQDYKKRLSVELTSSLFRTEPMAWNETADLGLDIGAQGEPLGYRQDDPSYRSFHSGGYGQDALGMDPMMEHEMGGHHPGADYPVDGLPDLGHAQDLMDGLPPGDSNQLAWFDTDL

T3: full-length beta-Catenin (Uniprot ID P35222) (Homo sapiens (Human), UniProt P35222 1-781)
T3 construct: also called bCat; B-Catenin
T3 sequence: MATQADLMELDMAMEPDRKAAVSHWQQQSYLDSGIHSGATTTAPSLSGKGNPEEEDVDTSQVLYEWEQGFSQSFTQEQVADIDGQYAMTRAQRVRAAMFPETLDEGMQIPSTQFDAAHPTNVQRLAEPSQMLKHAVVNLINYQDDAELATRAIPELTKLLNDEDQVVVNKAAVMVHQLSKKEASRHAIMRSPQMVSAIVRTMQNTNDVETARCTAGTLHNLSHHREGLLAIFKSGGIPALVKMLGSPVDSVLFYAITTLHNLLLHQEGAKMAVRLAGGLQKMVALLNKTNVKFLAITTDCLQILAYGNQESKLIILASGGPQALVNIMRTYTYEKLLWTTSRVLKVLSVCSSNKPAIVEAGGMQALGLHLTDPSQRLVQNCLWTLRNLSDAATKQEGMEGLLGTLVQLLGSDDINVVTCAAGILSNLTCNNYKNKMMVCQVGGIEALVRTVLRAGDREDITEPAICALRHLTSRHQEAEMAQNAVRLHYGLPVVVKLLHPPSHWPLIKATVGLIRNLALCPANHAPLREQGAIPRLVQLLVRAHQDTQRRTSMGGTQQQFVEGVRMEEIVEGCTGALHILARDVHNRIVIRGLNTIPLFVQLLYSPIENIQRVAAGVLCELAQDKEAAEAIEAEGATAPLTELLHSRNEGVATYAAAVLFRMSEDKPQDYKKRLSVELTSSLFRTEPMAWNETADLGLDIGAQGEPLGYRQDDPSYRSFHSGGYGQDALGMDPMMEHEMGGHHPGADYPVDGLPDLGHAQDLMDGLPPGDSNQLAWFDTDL

T4: full-length beta-Catenin (Uniprot ID P35222) (Homo sapiens (Human), UniProt P35222 1-781)
T4 construct: also called bCat; B-Catenin
T4 sequence: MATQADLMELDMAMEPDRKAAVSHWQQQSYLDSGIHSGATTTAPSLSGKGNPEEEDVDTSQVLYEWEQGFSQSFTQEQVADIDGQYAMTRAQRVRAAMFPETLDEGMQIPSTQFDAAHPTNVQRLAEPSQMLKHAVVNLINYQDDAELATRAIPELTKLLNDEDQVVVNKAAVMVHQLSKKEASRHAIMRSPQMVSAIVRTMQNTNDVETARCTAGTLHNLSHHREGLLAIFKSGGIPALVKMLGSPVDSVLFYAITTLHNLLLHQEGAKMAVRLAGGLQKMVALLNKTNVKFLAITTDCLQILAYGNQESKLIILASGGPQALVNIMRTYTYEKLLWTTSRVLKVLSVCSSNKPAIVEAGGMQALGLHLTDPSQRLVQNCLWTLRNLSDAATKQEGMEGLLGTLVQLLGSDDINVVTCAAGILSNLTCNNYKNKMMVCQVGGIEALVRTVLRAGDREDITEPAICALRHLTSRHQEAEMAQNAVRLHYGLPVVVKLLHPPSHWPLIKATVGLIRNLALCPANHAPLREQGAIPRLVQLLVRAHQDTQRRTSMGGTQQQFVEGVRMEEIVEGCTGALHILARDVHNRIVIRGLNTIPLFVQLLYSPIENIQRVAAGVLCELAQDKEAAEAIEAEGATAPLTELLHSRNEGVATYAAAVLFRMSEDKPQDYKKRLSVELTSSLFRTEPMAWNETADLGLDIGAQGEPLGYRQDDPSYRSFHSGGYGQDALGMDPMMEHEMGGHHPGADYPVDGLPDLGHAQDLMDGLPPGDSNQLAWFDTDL

T5: B-cat-Halo (UniProt P35222 1-781)
T5 construct: Expressed by transfection in HEK293 cells for the NanoBRET assay; also called beta-catenin HaloTag NanoBRET construct; not shown: HaloTag
T5 sequence (looked up): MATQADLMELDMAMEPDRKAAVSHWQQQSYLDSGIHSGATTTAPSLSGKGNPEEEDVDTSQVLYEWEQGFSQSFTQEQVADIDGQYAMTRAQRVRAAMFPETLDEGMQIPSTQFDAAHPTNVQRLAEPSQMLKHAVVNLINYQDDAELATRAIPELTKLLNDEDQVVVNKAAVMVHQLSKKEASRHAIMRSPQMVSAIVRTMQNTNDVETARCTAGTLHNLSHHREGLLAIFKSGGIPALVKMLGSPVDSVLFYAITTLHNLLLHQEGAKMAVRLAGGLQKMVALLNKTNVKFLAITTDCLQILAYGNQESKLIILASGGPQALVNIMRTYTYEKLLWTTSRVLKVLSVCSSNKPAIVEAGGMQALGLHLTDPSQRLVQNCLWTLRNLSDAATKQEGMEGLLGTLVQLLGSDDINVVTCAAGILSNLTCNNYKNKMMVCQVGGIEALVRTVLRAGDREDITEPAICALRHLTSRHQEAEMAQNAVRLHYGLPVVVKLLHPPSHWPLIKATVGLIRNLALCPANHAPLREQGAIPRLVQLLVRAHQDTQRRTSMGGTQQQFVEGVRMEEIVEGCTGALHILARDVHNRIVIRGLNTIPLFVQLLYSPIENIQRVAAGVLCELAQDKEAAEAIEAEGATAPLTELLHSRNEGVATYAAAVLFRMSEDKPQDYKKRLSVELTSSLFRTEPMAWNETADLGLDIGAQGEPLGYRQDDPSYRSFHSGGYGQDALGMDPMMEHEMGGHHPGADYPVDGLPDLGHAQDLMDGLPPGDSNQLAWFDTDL


Assays:
[1] = biological target: T1, Bcat-Halo (beta-catenin HaloTag …); assay: cell-based or functional assay
[2] = biological target: T2, beta-catenin in DLD1 TCF/LEF luciferase …; assay: cell-based or functional assay
[3] = biological target: T3, full-length beta-Catenin (Uniprot ID …); assay: fluorescence polarization competition; full-length beta-catenin + 5FAM-TCF4(10-53) probe
Experimental: (§1) The plate was incubated protected from light for 60 minutes at 20° C. prior to read. Reads were performed on a CLARIOstar plate reader (BMG Labtech) in duplicate, and data were fitted to a 1:1 binding model with hill slope using an in-house script. All provided concentrations are final concentrations.

[4] = biological target: T4, full-length beta-Catenin (Uniprot ID …); assay: competition fluorescence polarization; full-length beta-catenin, 5FAM-TCF4(10-53) probe as competitor
Experimental: as §1

B-cat-Halo = biological target: T5, B-cat-Halo; assay: NanoBRET Abs IC50 in HEK293 cells; Bcat-Halo, TCF4-Luc as competitor

| Binder | NanoBRET Abs IC50 [1] [nM] | DLD1 4% Abs IC50 [2] [nM] | IC50 [4] [nM] | IC50 (B-cat-Halo) [nM] | also measured |
| --- | --- | --- | --- | --- | --- |
| Ac-[αAllylPro]D[tBuAla][B5(4)]D[Phe(3-COOH)]AAFL[PyrS2″][3Thi][Bta]Q-NH2 (staple 1-4, 4-11) [I-1462] | 2300 | 2700 |  |  |  |
| Ac-[αAllylPro]DA[B5(10)]NTAAFL[PyrS2]F[Bta]Q-NH2 (staple 1-4, 4-11; not fully specified; printed as Ac-PL3-Asp-Ala-B5-Asn-Thr-Ala-Ala-Phe-Leu-PyrS2-Phe-BztA-Gln-NH2) [I-1296] |  |  |  |  | EC50 [3]: 3780 nM |
| XDLXDDAAFNXFXQ (not fully specified; N-terminal Ac; C-terminal NH2; non-natural PL3 (1), B5 (4), S8 (11), BztA (13); stapled PL3-B5 and B5-S8 by olefin metathesis, Stapled peptide composition; also called Ac-PL3-Asp-Leu-B5-Asp-Asp-Ala-Ala-Phe-Asn-S8-Phe-BztA-Gln-NH2) [I-563] |  |  | 19 | 15700 |  |
| Ac-[αAllylPro]DL[B5(5)]DDAAFN[S8]F[Bta]H-NH2 (staple 1-4, 4-11, Stapled peptide composition; also called Ac-PL3-Asp-Leu-B5-Asp-Asp-Ala-Ala-Phe-Asn-S8-Phe-BztA-His-NH2) [I-564] |  |  | 36 | > 20000 |  |

Continued, in another order:

| NanoBRET Abs IC50 [1] [nM] | DLD1 4% Abs IC50 [2] [nM] | IC50 [4] [nM] | IC50 (B-cat-Halo) [nM] | Binder | also measured |
| --- | --- | --- | --- | --- | --- |
| 3700 | 1700 |  |  | Ac-[αAllylPro]D[tBuAla][B5(4)]D[TfeGA]AAFL[PyrS2][3Thi][Bta]Q-NH2 (staple 1-4, 4-11) [I-1461] |  |
|  | 700 |  |  | Ac-[αAllylPro]D[tBuAla][B5(4)]D[Phe(3-COOH)]AAFL[PyrS2(4)][2F3MeF][Bta]Q-NH2 (staple 1-4, 4-11; not fully specified; printed as Ac-PL3-Asp-Npg-B5-Asp-3COOHF-Ala-Ala-Phe-Leu-PyrS2-2F3MeF-BztA-Gln-NH2; reading uncertain) [I-1466] |  |
